Experimental findings from publication PMC11032447, “A hydrophobic groove in secretagogin allows for alternate interactions with SNAP-25 and syntaxin-4 in endocrine tissues” (Proceedings of the National Academy of Sciences of the …, 2024) are described below.

Sequences and labels used below:
B2: mouse secretagogin (natural protein, UniProt Q91WD9 1-276, looked up)
chain: MDNARRKTPARLDAACFWQIWQRFDKEEKGYIRETELDAFFDHLLAKSGTEDTLMEENVQKVKEQLMTSHNVSKEGRILMKELASMFLSEDENFLLFFRLETPLDNSVEFMQIWRKYDADSSGFISAAELCNFLRDLFLHHKKNISEAELEEYTSTMMKIFDKNKDGRLDLNDLARILALQENFLLQFKMDASSTEERKRDFEKIFAHYDVSKTGALEGPEVDGFVKDMMELVQPSISGVDLDKFREILLRHCDVNKDGKIQKSELALCLGLKINP
notes: mouse secretagogin, the three-domain protein (domains A, B, C); construct in Dataset S1; also called mSCGN; SCGN; source: recombinant, produced and purified; E. coli BL21(DE3) named for the pull-down constructs
B3: Habc domain of mouse syntaxin-4 (domain or fragment, UniProt P70452 32-170, looked up)
chain: ARLGSPDDEFFQKVQTIRQTMAKLESKVRELEKQQVTILATPLPEESMKQGLQNLREEIKQLGREVRAQLKAIEPQKEEADENYNSVNTRMKKTQHGVLSQQFVELINKCNSMQSEYREKNVERIRRQLKITNAGMVSD
notes: mouse syntaxin-4, globular Habc domain; limits in Dataset S1; The His6 tag is told for the pull-down baits; a Habc with the N-peptide is m36; also called Habc module of syntaxin-4; syntaxin-4-derived Habc module; source: recombinant, produced and purified; E. coli BL21(DE3) named for the pull-down constructs

No end group written: not given here.

The target of assay [1] is T1, human secretagogin (human, UniProt O76038 1-276).
T1 construct: human secretagogin; construct in Dataset S1; Construct limits are in Dataset S1; also called recombinant human secretagogin; source: recombinant; coexpressed and copurified with the GFP fusion, or purified
T1 sequence (looked up): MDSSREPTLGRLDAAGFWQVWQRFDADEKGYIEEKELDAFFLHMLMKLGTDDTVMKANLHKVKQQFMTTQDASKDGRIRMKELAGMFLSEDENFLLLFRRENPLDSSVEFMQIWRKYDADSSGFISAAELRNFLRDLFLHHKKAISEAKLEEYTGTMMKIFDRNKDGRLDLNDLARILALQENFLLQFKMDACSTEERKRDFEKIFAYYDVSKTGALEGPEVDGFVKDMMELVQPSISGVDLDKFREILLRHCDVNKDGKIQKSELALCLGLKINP
The assay is described as follows: co-expression and co-purification + SEC; GFP-peptide fusion coexpressed with human secretagogin; in the presence of Ca2+. The settings on record: partners not purified.

Assay [2] addresses B3. In words: ITC; in the presence of Ca2+. The settings on record: both partners purified.
For assay [3], the target named is T2, C-terminal SNARE domain of mouse SNAP-25 (mouse, UniProt P60879 140-206).
T2 construct: mouse SNAP-25, C-terminal SNARE domain (helix), identical in SNAP25-1 and SNAP25-2; limits in Dataset S1; The pull-down fragments are said to derive from isoform-2; also called SNAP-25c; SNAP-25C; source: recombinant; E. coli BL21(DE3) named for the pull-down constructs
T2 sequence (P60879 140-206): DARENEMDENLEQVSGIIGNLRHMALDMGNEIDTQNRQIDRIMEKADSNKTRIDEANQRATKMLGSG
In words: ITC; in the presence of Ca2+. The settings on record: both partners purified.

In assay [4] the target is B2. The assay is described as follows: ITC; in the presence of Ca2+. The settings on record: both partners purified.
The target of assay [5] is B2. The assay is described as follows: ITC; GFP-fusion peptides of the syntaxin-4 Hb helix; the sentence names no method, the values are said to stand in SI Fig. S3E and SI Table S1 (ITC data). The settings on record: both partners purified.

B1: GFP carrying the SNAP-25-derived peptide (AA155-179) at its C-terminus (peptide)
chain: GIIGNLRHMALDMGNEIDTQNRQID
notes: SNAP-25 stretch 155-179 (mouse and human identical), attached to the C-terminus of GFP; GFP serves as crystallization chaperon; also called GFP-SNAP-25c chimera; GFP-linked SNAP-25-peptide; source: coexpressed and copurified with secretagogin; not shown: GFP, N-terminal, kept
For B1, the binding result in assay [1] is “binds”.

Consider B2, for which the “stoichiometry N” value in assay [2] and in assay [3] was 1 in each case. As for B3, the Kd in assay [4] was ~14 µM.

B4: mouse SNAP-25 peptide 155-179 (peptide)
chain: GIIGNLRHMALDMGNEIDTQNRQID
notes: mouse SNAP-25, stretch of the C-terminal helix; Tags of the deletion constructs are in Dataset S1; also called mSNAP-25^14−33; SNAP-25^14–33; source: recombinant deletion construct of SNAP-25c
For the molecule B4, the dissociation constant Kd in assay [4] is ~0.0466 µM.

B5: GFPmSTX4Hb9 (peptide)
chain: ESMKQGLQNLREEIKQLGREVRAQLKAIEPQKE
modifications: also: fused as C-terminal tag to GFP
notes: mouse syntaxin-4, stretch of the Hb helix, C-terminal tag on GFP; source: recombinant GFP fusion; not shown: GFP, N-terminal, kept
As to B5, binding in assay [5] was characterised by a dissociation constant (Kd) of 541 nM.

B6: GFPmSTX4Hb10 (peptide)
chain: GLQNLREEIKQLGREVRAQLKAIEPQKE
modifications: also: fused as C-terminal tag to GFP
notes: mouse syntaxin-4, stretch of the Hb helix, C-terminal tag on GFP; A linker stands between GFP and the peptide; also called GFP-syntaxin-4-peptide; chimeric GFP-syntaxin-4 (STX4)-derived peptide; source: recombinant GFP fusion; complex with secretagogin isolated by preparative SEC; not shown: GFP, N-terminal, kept
In assay [5], B6 had a dissociation constant Kd of 826 nM.

B7: helix-b of the Habc domain of mouse syntaxin-4 (domain or fragment, UniProt P70452 72-109, looked up)
chain: TPLPEESMKQGLQNLREEIKQLGREVRAQLKAIEPQKE
notes: limits in Dataset S1; Used as bait in the pull-down; also called Hb; syntaxin-4 Hb; source: recombinant; E. coli BL21(DE3) named for the pull-down constructs
As to B7, the dissociation constant (Kd) in assay [4] was ~0.209 µM.

B8: GFPmSTX4Hb7 (peptide)
chain: TPLPEESMKQGLQNLREEIKQLGREVRAQLKAIEPQKE
modifications: also: fused as C-terminal tag to GFP
notes: as for B5
In assay [5], B8 showed a Kd of 275 nM.

B9: helix-a of the Habc domain of mouse syntaxin-4 (domain or fragment, UniProt P70452 32-80, looked up)
chain: ARLGSPDDEFFQKVQTIRQTMAKLESKVRELEKQQVTILATPLPEESMK
notes: limits in Dataset S1; Used as bait in the pull-down; source: recombinant; E. coli BL21(DE3) named for the pull-down constructs
As for B9, in assay [4], the Kd was ~7 µM.
